Laboratory results as given in publication doi:10.1101/2020.02.08.939488.

Biological target: rabbit reticulocyte lysate 60S ribosomal subunit, purified (rabbit) (UniProt G1SV32)
Experiment: co-sedimentation

Ebp1 concentration at saturated binding (100 nM 60S): 200 nM
Kd: 124 nM
Substance: recombinant full-length Ebp1 with a N-terminal histidine tag (Ebp1-His) (from UniProt P50580 1-394) (natural protein)
